Test results published in US6537804B1, “BCR-ABL directed compositions and uses for inhibiting Philadelphia chromesome stimulated cell growth” (Board of Regents, The University of Texas Systems, priority 1995, dated 2003).
Each block holds one molecule with its values, some of them ahead of it. Non-standard residues stand in square brackets, D forms with d. No end group written: not given here. pS = N[C@@H](COP(=O)(O)O)C(=O)O

Legend:
[1] = target: T1, P185 BCR-ABL (Homo sapiens, UniProt P00519+P11274); experiment: Bcr-Abl autokinase (immune complex kinase) assay; format: biochemical; conditions: for Inhibition of Bcr-Abl tyrosine kinase activity (autophosphorylation): 50 μg of peptide added to P185 BCR-ABL immune complexes from SUP B15 cells
T1 construct: endogenous in cells; host or cells: SUP-B15 (Ph1-positive ALL cell line)
T1 sequence (P11274+P00519 fused): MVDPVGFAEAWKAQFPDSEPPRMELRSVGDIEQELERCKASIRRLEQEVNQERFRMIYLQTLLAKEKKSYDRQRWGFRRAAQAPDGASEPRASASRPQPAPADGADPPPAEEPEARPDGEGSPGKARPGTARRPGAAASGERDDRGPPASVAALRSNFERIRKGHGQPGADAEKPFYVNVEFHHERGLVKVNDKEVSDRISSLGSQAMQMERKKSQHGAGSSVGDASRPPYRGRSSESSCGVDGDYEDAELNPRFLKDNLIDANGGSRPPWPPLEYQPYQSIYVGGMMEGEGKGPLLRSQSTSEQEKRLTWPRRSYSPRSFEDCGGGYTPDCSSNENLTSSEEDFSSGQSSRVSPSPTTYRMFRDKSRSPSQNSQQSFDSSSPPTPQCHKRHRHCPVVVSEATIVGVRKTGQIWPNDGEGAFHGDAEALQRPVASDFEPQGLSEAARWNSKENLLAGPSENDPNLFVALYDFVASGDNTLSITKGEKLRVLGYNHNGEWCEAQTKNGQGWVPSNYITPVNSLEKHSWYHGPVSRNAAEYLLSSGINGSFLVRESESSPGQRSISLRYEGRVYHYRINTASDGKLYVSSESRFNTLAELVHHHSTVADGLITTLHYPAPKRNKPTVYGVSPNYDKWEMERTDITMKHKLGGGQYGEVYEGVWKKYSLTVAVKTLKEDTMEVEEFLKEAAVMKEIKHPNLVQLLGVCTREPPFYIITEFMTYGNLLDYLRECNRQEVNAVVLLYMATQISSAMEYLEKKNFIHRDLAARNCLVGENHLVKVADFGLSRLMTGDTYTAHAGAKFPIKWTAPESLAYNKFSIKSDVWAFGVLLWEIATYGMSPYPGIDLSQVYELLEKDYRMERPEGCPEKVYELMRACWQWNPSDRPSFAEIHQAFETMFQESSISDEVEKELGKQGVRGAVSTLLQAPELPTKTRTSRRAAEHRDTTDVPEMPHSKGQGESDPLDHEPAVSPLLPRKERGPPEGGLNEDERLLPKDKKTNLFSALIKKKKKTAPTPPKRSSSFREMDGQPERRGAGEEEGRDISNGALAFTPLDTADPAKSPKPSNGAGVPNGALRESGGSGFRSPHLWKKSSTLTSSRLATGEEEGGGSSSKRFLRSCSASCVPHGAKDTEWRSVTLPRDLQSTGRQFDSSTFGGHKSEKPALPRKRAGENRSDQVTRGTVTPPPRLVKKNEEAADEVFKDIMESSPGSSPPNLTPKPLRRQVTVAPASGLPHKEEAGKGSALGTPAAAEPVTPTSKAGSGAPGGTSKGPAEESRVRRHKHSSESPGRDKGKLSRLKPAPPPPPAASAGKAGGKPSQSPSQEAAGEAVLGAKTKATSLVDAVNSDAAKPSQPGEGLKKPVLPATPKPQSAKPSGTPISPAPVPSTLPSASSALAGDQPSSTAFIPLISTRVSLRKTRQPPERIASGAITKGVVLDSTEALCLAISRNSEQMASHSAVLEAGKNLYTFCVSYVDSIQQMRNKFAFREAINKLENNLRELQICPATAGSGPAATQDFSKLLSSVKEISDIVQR
Description: FIG. 21. Phosphoserine Bcr peptide pS354 S17K (SEQ ID NO:22) inhibits the Bcr-Abl tyrosine kinase activity. The SUP B15 cell line derived from a patient with Bcr-Abl-positive acute lymphocytic leukemia (ALL) were grown in culture; cells were lysed and the Bcr-Abl oncoprotein immunoprecipitated with a monoclonal antibody p6D (anti-Abl 51-64). The immune complexes were mixed with either no peptide or 50 μg of peptide prior to addition of the kinase activating buffer containing [γ-^32P]ATP. After the assay was completed, the proteins were fractionated by SDS gel electrophoresis. Radioactive proteins were detected by phosphoimage analysis. Lane 1, no peptide; lane 2, 50 μg of pS354 S17K; lane 3, 50 μg of unphosphorylated S17K.
FIG. 23A, FIG. 23B and FIG. 23C. A Bcr fragment expressed in COS-1 cells inhibits the Bcr-Abl tyrosine kinase in vitro. In these studies, the Bcr fragment was expressed in COS-1 cells, then isolated by immunoprecipitation with anti-Bcr 181-194 antibody. This immune complex was isolated by binding to protein A Sepharose beads; these immune complexes were added to protein A Sepharose beads containing P185 BCR-ABL harvested from SUP B15 leukemic cells with anti-Abl 51-64. The autokinase reaction was performed to measure the tyrosine kinase activity of Bcr-Abl.
Immunokinase Assay: The immunokinase assays were performed as described by Campbell et al. (1990) with modifications. The cells are lysed by homogenizing the cell pellet in two different lysis buffers at 0° C. in a tight fitting Wheaton homogenizer (either 0.1% Triton-X100, 100 mM NaCl, 5 mM EDTA, 10 mM sodium phosphate, pH 7.2 or 1% Triton-X100, 100 mM NaCl, 0.5% sodium deoxycholate, 0.1% SDS, 5 mM EDTA, 10 mM sodium phosphate pH 7.2). Both buffers were supplemented with 30 mM sodium pyrophosphate, 100 KIU aprotinin, 1 mM benzamidine, 1 mM phenylmethylsulfonyl fluoride and 0.2 mM sodium vanadate.
Immunoprecipitation reactions were carried out utilizing 20-40 μl of the respective anti-peptide rabbit sera or 5 μl of monoclonal antibody at 0° C. for 1 hour. Blocked immunoprecipitations refer to those immunoprecipitation reactions performed with antisera that have been preincubated with excess cognate peptide to specifically block the anti-peptide antibodies.
The resulting antigen-antibody immunoprecipitates were collected with 30 μl of 50% protein A-Sepharose (Pharmacia, Uppsala, Sweden), pelleted and washed with RIPA buffer (0.1% Triton X-100, 0.05% SDS, 0.5% sodium deoxycholate, 100 mM NaCl in 10 mM phosphate buffer, pH 7.2), wash buffer (0.1% Triton X-100, 100 mM NaCl, in 10 mM phosphate buffer, pH 7.2) and finally with 50 mM Tris buffer, pH 7.2. […]

[2] = target: T2, P210 BCR-ABL (Homo sapiens, UniProt P00519+P11274); experiment: In vivo tyrosine phosphorylation of truncated Bcr proteins in COS-1 cells, anti-pTyr Western blot; format: cell-based; conditions: COS-1 cells coexpressing p210 Bcr-Abl
T2 construct: expressed in transfected cells; host or cells: COS-1
T2 sequence (P11274+P00519 fused): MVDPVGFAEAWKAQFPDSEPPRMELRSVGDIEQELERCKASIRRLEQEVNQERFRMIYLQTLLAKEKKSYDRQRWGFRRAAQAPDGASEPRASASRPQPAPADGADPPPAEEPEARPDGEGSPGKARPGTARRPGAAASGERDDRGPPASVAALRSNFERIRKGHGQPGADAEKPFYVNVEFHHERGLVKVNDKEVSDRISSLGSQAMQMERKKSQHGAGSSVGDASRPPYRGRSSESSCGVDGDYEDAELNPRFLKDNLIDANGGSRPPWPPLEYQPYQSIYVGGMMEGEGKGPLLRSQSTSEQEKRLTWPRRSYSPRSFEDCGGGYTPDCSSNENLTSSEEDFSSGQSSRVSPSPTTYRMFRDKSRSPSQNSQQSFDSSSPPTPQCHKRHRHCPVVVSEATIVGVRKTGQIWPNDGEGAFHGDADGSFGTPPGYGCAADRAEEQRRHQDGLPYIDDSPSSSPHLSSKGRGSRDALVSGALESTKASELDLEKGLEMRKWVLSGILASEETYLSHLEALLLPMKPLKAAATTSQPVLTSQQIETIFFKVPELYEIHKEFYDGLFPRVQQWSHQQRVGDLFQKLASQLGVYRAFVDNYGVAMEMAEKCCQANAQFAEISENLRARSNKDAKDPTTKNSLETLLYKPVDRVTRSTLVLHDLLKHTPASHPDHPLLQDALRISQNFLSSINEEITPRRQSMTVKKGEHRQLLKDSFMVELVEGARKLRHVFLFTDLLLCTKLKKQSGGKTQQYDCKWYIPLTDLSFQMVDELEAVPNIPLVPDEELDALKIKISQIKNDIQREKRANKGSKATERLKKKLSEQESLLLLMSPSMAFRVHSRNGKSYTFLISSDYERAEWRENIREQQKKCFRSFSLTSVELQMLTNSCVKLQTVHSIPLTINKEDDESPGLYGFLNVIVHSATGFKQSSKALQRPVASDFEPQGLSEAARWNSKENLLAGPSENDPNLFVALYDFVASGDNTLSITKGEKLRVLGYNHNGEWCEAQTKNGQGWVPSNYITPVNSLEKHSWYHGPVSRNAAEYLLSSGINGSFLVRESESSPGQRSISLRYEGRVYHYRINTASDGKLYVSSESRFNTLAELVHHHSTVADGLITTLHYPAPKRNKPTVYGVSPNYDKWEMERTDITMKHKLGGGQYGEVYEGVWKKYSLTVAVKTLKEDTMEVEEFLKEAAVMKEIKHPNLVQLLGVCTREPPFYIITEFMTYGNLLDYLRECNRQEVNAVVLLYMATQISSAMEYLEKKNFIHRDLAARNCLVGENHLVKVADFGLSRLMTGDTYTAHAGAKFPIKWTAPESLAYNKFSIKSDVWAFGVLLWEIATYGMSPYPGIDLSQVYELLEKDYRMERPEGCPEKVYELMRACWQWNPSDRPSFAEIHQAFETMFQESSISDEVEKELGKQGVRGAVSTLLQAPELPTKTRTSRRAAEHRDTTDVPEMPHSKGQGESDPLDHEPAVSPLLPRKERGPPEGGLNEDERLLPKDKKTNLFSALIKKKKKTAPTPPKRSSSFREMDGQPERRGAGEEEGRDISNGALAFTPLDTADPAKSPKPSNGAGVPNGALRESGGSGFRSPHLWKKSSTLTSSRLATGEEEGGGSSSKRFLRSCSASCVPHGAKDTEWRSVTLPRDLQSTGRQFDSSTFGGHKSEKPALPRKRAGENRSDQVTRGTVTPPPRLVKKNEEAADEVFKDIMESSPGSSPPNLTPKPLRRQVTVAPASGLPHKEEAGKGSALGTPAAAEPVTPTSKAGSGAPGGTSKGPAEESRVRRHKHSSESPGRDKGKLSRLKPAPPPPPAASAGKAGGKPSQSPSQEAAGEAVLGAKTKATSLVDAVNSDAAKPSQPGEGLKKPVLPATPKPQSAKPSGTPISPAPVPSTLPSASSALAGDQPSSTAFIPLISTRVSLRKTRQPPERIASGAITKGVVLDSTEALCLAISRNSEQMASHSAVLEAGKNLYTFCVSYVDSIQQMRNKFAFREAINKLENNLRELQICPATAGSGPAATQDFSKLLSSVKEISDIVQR
Source text: FIG. 6A and FIG. 6B. In vivo tyrosine phosphorylation of truncated Bcr first exon sequences by Bcr-Abl. COS-1 vectors expressing Bcr150, Bcr221, and Bcr413 proteins, respectively, were expressed in COS-1 cells in the presence and absence of […].
The next tyrosine is at residue 177, and it is expected to be phosphorylated by Bcr-Abl (Puil et al., 1994). Bcr221 is tyrosine phosphorylated, but as with Bcr413, only in the presence of Bcr-Abl.
Transient transfections of COS1 cells were performed by the diethylaminoethyl (DEAE)-Dextran procedure. Transfection was initiated when COS1 cells were about 60%-80% confluent. After washing once with phosphate-buffered saline (PBS) and once with Tris-buffered Saline-0.02% Dextrose (TBS-D), cells were incubated with TBS-D containing 0.2 mg/ml DEAE-Dextran and 2 μg/ml of each added plasmid. The supernatant was then removed after 5-10 minutes when the cells started to round up and shrink.
After washing once with TBS-D and once with PBS, the cells were incubated in DMEM supplemented with 10% fetal calf serum and 100 μg/ml of chloroquine at 37° C. The chloroquine containing media was removed after 3-5 hours and the cells were washed three times with DMEM without fetal calf serum. The cells were then incubated in DMEM supplemented with 10% fetal calf serum at 37° C. for 2-3 days before harvesting.
COS-1 vectors expressing Bcr159, Bcr221, and Bcr413 proteins, respectively, were expressed in COS-1 cells in the presence and absence of p210 Bcr-Abl.

[3] = test system: casein; experiment: Immune complex kinase assay of mutant P160 BCR, transphosphorylation of casein; format: biochemical; conditions: mutant P160 BCR expressed in COS-1 cells
Source text: Mutant forms of P160^BCR were expressed in COS-1 cells and tested for serine/threonine kinase activities in immune complex kinase assays.
Using the intensities of the P160^BCR bands as an indication of the amount of active P160^BCR in the immune complex and the intensities of the casein bands as a measure of transphosphorylation activity, the transphosphorylation activity of the Y360F Bcr mutant was reduced about sevenfold, compared with that of the wild type. Similarly, the Y360F Bcr mutant was also defective in transphosphorylating another exogenous substrate, histone H1.
The amounts of Bcr within these immune complexes were quantitated in two ways. In a first method, the amounts of Bcr mutants would be underestimated by about 10%, compared with that of the wild type. On the basis of these measurements, the specific activity of transkinase activity (casein intensity/P160^BCR intensity) of the Y360F Bcr mutant (0.03) was reduced more than 20-fold in this study, compared with that of the wild type.
The second method of estimating the amounts of P160^BCR in immune complexes involved the Western blotting of these immune complexes with an anti-Bcr antibody. The specific activity of Y360F was reduced by about sixfold. […] By using autophosphorylation of the Bcr protein as a measure of its relative amount, the reduction of Bcr's transkinase by the Y360F mutation was about sevenfold, confirming the results obtained by the Western blot method.

- Inhibition of Bcr-Abl tyrosine kinase activity (autophosphorylation) [1]: strongly inhibited
Molecule: 350-SSRVpS*PSPTTYRMFRDK-366 (SSRV[pS]PSPTTYRMFRDK) [pS354 S17K]

- Inhibition of Bcr-Abl tyrosine kinase activity (autophosphorylation) [1]: little affect
Molecule: unphosphorylated S17K: unphosphorylated form of Bcr peptide S17K, Bcr residues 350 to 366 (SSRVSPSPTTYRMFRDK)

- Inhibition of Bcr-Abl tyrosine kinase activity (P185 autokinase) ([1]; immune complexes on protein A Sepharose beads added to P185 BCR-ABL immunoprecipitates from SUP B15): potent inhibitor
- Inhibitory activity towards Bcr-Abl kinase after boiling ([1]; immunoprecipitate boiled for a few minutes prior to addition to the kinase assay): strongly decreased
B1: Bcr fragment (64-413): Bcr sequences from amino acid 64 to 413 with both A and B serine-rich boxes, expressed in COS-1 cells (protein)
chain: AKEKKSYDRQRWGFRRAAQAPDGASEPRASASRPQPAPADGADPPPAEEPEARPDGEGSPGKARPGTARRPGAAASGERDDRGPPASVAALRSNFERIRKGHGQPGADAEKPFYVNVEFHHERGLVKVNDKEVSDRISSLGSQAMQMERKKSQHGAGSSVGDASRPPYRGRSSESSCGVDGDYEDAELNPRFLKDNLIDANGGSRPPWPPLEYQPYQSIYVGGMMEGEGKGPLLRSQSTSEQEKRLTWPRRSYSPRSFEDCGGGYTPDCSSNENLTSSEEDFSSGQSSRVSPSPTTYRMFRDKSRSPSQNSQQSFDSSSPPTPQCHKRHRHCPVVVSEATIVGVRKTGQI

Further lines, the molecule ahead of its results:

B2: Bcr413: amino acids 1-413 of Bcr, N-terminal fragment (protein)
chain: MVDPVGFAEAWKAQFPDSEPPRMELRSVGDIEQELERCKASIRRLEQEVNQERFRMIYLQTLLAKEKKSYDRQRWGFRRAAQAPDGASEPRASASRPQPAPADGADPPPAEEPEARPDGEGSPGKARPGTARRPGAAASGERDDRGPPASVAALRSNFERIRKGHGQPGADAEKPFYVNVEFHHERGLVKVNDKEVSDRISSLGSQAMQMERKKSQHGAGSSVGDASRPPYRGRSSESSCGVDGDYEDAELNPRFLKDNLIDANGGSRPPWPPLEYQPYQSIYVGGMMEGEGKGPLLRSQSTSEQEKRLTWPRRSYSPRSFEDCGGGYTPDCSSNENLTSSEEDFSSGQSSRVSPSPTTYRMFRDKSRSPSQNSQQSFDSSSPPTPQCHKRHRHCPVVVSEATIVGVRKTGQI
- Tyrosine phosphorylation by Bcr-Abl in cells [2]: induces tyrosine phosphorylation

B3: Bcr Y283F: P160 BCR with tyrosine 283 to phenylalanine mutation (protein, UniProt P11274 1-1271, looked up, variant Y283F)
Breakpoint cluster region …: MVDPVGFAEAWKAQFPDSEPPRMELRSVGDIEQELERCKASIRRLEQEVNQERFRMIYLQTLLAKEKKSYDRQRWGFRRAAQAPDGASEPRASASRPQPAPADGADPPPAEEPEARPDGEGSPGKARPGTARRPGAAASGERDDRGPPASVAALRSNFERIRKGHGQPGADAEKPFYVNVEFHHERGLVKVNDKEVSDRISSLGSQAMQMERKKSQHGAGSSVGDASRPPYRGRSSESSCGVDGDYEDAELNPRFLKDNLIDANGGSRPPWPPLEYQPYQSIFVGGMMEGEGKGPLLRSQSTSEQEKRLTWPRRSYSPRSFEDCGGGYTPDCSSNENLTSSEEDFSSGQSSRVSPSPTTYRMFRDKSRSPSQNSQQSFDSSSPPTPQCHKRHRHCPVVVSEATIVGVRKTGQIWPNDGEGAFHGDADGSFGTPPGYGCAADRAEEQRRHQDGLPYIDDSPSSSPHLSSKGRGSRDALVSGALESTKASELDLEKGLEMRKWVLSGILASEETYLSHLEALLLPMKPLKAAATTSQPVLTSQQIETIFFKVPELYEIHKEFYDGLFPRVQQWSHQQRVGDLFQKLASQLGVYRAFVDNYGVAMEMAEKCCQANAQFAEISENLRARSNKDAKDPTTKNSLETLLYKPVDRVTRSTLVLHDLLKHTPASHPDHPLLQDALRISQNFLSSINEEITPRRQSMTVKKGEHRQLLKDSFMVELVEGARKLRHVFLFTDLLLCTKLKKQSGGKTQQYDCKWYIPLTDLSFQMVDELEAVPNIPLVPDEELDALKIKISQIKNDIQREKRANKGSKATERLKKKLSEQESLLLLMSPSMAFRVHSRNGKSYTFLISSDYERAEWRENIREQQKKCFRSFSLTSVELQMLTNSCVKLQTVHSIPLTINKEDDESPGLYGFLNVIVHSATGFKQSSNLYCTLEVDSFGYFVNKAKTRVYRDTAEPNWNEEFEIELEGSQTLRILCYEKCYNKTKIPKEDGESTDRLMGKGQVQLDPQALQDRDWQRTVIAMNGIEVKLSVKFNSREFSLKRMPSRKQTGVFGVKIAVVTKRERSKVPYIVRQCVEEIERRGMEEVGIYRVSGVATDIQALKAAFDVNNKDVSVMMSEMDVNAIAGTLKLYFRELPEPLFTDEFYPNFAEGIALSDPVAKESCMLNLLLSLPEANLLTFLFLLDHLKRVAEKEAVNKMSLHNLATVFGPTLLRPSEKESKLPANPSQPITMTDSWSLEVMSQVQVLLYFLQLEAIPAPDSKRQSILFSTEV
- Ability to transphosphorylate casein compared with wild-type Bcr [3]: not significantly altered

B4: Bcr221: amino acids 1-221 of Bcr, N-terminal fragment (protein)
chain: MVDPVGFAEAWKAQFPDSEPPRMELRSVGDIEQELERCKASIRRLEQEVNQERFRMIYLQTLLAKEKKSYDRQRWGFRRAAQAPDGASEPRASASRPQPAPADGADPPPAEEPEARPDGEGSPGKARPGTARRPGAAASGERDDRGPPASVAALRSNFERIRKGHGQPGADAEKPFYVNVEFHHERGLVKVNDKEVSDRISSLGSQAMQMERKKSQHGAGS
- Tyrosine phosphorylation by Bcr-Abl in cells [2]: induces tyrosine phosphorylation

B5: Bcr159: amino acids 1-159 of Bcr, N-terminal fragment (protein)
chain: MVDPVGFAEAWKAQFPDSEPPRMELRSVGDIEQELERCKASIRRLEQEVNQERFRMIYLQTLLAKEKKSYDRQRWGFRRAAQAPDGASEPRASASRPQPAPADGADPPPAEEPEARPDGEGSPGKARPGTARRPGAAASGERDDRGPPASVAALRSNFE
- Tyrosine phosphorylation by Bcr-Abl in cells [2]: not
